Source: IntAct's records for PubMed 11779503

B1: Mothers against decapentaplegic homolog 2 (Homo sapiens), Q15796 (parent)
chain: MSSILPFTPPVVKRLLGWKKSAGGSGGAGGGEQNGQEEKWCEKAVKSLVKKLKKTGRLDELEKAITTQNCNTKCVTIPSTCSEIWGLSTPNTIDQWDTTGLYSFSEQTRSLDGRLQVSHRKGLPHVIYCRLWRWPDLHSHHELKAIENCEYAFNLKKDEVCVNPYHYQRVETPVLPPVLVPRHTEILTELPPLDDYTHSIPENTNFPAGIEPQSNYIPETPPPGYISEDGETSDQQLNQSMDTGSPAELSPTTLSPVNHSLDLQPVTYSEPAFWCSIAYYELNQRVGETFHASQPSLTVDGFTDPSNSERFCLGLLSNVNRNATVEMTRRHIGRGVRLYYIGGEVFAECLSDSAIFVQSPNCNQRYGWHPATVCKIPPGCNLKIFNNQEFAALLAQSVNQGFEAVYQLTRMCTIRMSFVKGWGAEYRRQTVTSTPCWIELHLNGPLQWLDKVLTQMGSPSVRCSSMS
B2: Mothers against decapentaplegic homolog 4 (Homo sapiens), Q13485 (parent)
chain: MDNMSITNTPTSNDACLSIVHSLMCHRQGGESETFAKRAIESLVKKLKEKKDELDSLITAITTNGAHPSKCVTIQRTLDGRLQVAGRKGFPHVIYARLWRWPDLHKNELKHVKYCQYAFDLKCDSVCVNPYHYERVVSPGIDLSGLTLQSNAPSSMMVKDEYVHDFEGQPSLSTEGHSIQTIQHPPSNRASTETYSTPALLAPSESNATSTANFPNIPVASTSQPASILGGSHSEGLLQIASGPQPGQQQNGFTGQPATYHHNSTTTWTGSRTAPYTPNLPHHQNGHLQHHPPMPPHPGHYWPVHNELAFQPPISNHPAPEYWCSIAYFEMDVQVGETFKVPSSCPIVTVDGYVDPSGGDRFCLGQLSNVHRTEAIERARLHIGKGVQLECKGEGDVWVRCLSDHAVFVQSYYLDREAGRAPGDAVHKIYPSAYIKVFDLRQCHRQMQQQAATAQAAAAAQAAAVAGNIPGPGSVGGIAPAISLSAAAGIGVDDLRRLCILRMSFVKGWGPDYPRQSIKETPCWIEIHLHRALQLLDEVLHTMPIADPQPLD

Variants of: B1
Settings: with smad4_human SMAD4, Q13485

effect of a mutation on the interaction | Variant
disrupting interaction strength | D450H
with no effect | R428A
with no effect | Y426A

The next lines start with the variant.

Variant | effect of a mutation on the interaction
V319D | with no effect
K375A | with no effect
D300H;R310H | with no effect
R310H | decreasing interaction strength
D300H;K420A | with no effect
Y406H | with no effect
R310H;K420A | with no effect
D300H | decreasing interaction strength
R310H;K375A | with no effect
K420A | with no effect
D300H;K375A | with no effect
W368H | with no effect
N387P | with no effect
K375H;K420A | with no effect

Variants of: B2
Settings: with smad2_human SMAD2, Q15796

effect of a mutation on the interaction | Variant
decreasing interaction strength | K507A
with no effect | Y513A
decreasing interaction strength | R515A
with no effect | R441P
decreasing interaction strength | K428A
with no effect | D537H
with no effect | D493H

Continued, variant first:

Variant | effect of a mutation on the interaction
R420H | with no effect
V370D | with no effect
R361H | disrupting interaction strength
D351H | disrupting interaction strength
